This data set in a line: self-splicing fitness, log relative to wild type (ln ratio); higher = more splicing; Tetrahymena group I intron in knt gene, E. coli kanamycin selection, DiMSum; sequences stand for … in CUCUCU…GGAGGGAAAAGUUAUCAGGCAUGCACCUGGUAGCUAGUCUUUAAACCAAUAGAUUGCAUCGGUUUAAAAGGCAAGACCGUCAAAUUGCGGGAAAGGGGUCAACAGCCGUUCAGUACCAAGUCUCAGGGGAAACUUUGAGAUGGCCUUGCAAAGGGUAUGGUAAUAAGCUGACGGACAUGGUCCUAACCACGCAGCCAAGUCCUAAGUCAACAGAUCUUCUGUUGAUAUGGAUGCAGUUCACAGACUAAAUGUCGGUCGGGGAAGAUGUAUUCUUCUCAUAAGAUAUAGUCGGACCUCUCCUUAAUGGGAGCUAGCGGAUGAAGUGAUGCAACACUGGAGCCGCUGGGAACUAAUUUGUAUGCGAAAGUAUAUUGAUUAGUUUUGGAGUACUCGUGGUCG
In outline: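 Colonies from six replicate transformations of E. coli BL21(DE3) were pooled and amplicon-sequenced on an Illumina HiSeq 2500. The library placed an intron with all eight P1ex-region nucleotides randomised inside the knt kanamycin-resistance gene on pET-22b(+), and cells grew overnight at 37°C or 30°C on LB agar with or without 25 μg/mL kanamycin (plus 100 μg/mL carbenicillin, 50 μM IPTG, 0.2% rhamnose). Fitness is the DiMSum error-weighted combination of wild-type-normalised replicate fold changes, kanamycin versus none.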

± gives the uncertainty stated by the source.

With UAGUAGCAAUAUUACGACUC, the “self-splicing fitness (ln)” value was -0.329 ± 0.16 (30 °C) and 0.405 ± 0.19 (37 °C). The corresponding values for UAGUAGCAAUAUUACGACUU are 0.654 ± 0.13 and -0.285 ± 0.14. On to UAGUAGCAAUAUUACGAGGG, for which the “self-splicing fitness (ln)” value runs as follows: (30 °C) -3.04 ± 0.42; (37 °C) -2.03 ± 0.36. For UAGUAGCAAUAUUACGCAGG, the “self-splicing fitness (ln)” value is -2.8 ± 0.22 (30 °C) and -1.74 ± 0.23 (37 °C). Regarding UAGUAGCAAUAUUACGCCUA, the “self-splicing fitness (ln)” value (30 °C) was -0.556 ± 0.14 and the “self-splicing fitness (ln)” value (37 °C) was -0.575 ± 0.14. In the same order, the values of UAGUAGCAAUAUUACGCGUA are -1.53 ± 0.25 and -1.94 ± 0.17. Turning to UAGUAGCAAUAUUACGCUAC, the “self-splicing fitness (ln)” value (30 °C) was -2.41 ± 0.42. As for UAGUAGCAAUAUUACGCUCU, the “self-splicing fitness (ln)” value (30 °C) is -1.71 ± 0.16 and the “self-splicing fitness (ln)” value (37 °C) is -0.589 ± 0.17. In the same order, the values of UAGUAGCAAUAUUACGGCCG are 0.0089 ± 0.17 and -0.367 ± 0.23. With UAGUAGCAAUAUUACGGCUG, the “self-splicing fitness (ln)” value runs as follows: (30 °C) -0.344 ± 0.061; (37 °C) -0.0985 ± 0.096. The corresponding values for UAGUAGCAAUAUUACGUCCU are -2.53 ± 0.21 and -0.272 ± 0.15. The corresponding values for UAGUAGCAAUAUUACGUGCU are -1.79 ± 0.11 and -0.826 ± 0.12. In the same order, the values of UAGUAGCAAUAUUACGUGGA are -2.56 ± 0.31 and -1.29 ± 0.2. With UAGUAGCAAUAUUACGUUAU, the “self-splicing fitness (ln)” value reads like this: (30 °C) -3.5 ± 0.43; (37 °C) -3.13 ± 0.4. With UAGUAGCAAUAUUACGUUCG, the “self-splicing fitness (ln)” value (30 °C) is -0.331 ± 0.091 and the “self-splicing fitness (ln)” value (37 °C) is -0.159 ± 0.11. With UAGUAGCAAUAUUACGUUGG, the “self-splicing fitness (ln)” value was -3.52 ± 0.22 (30 °C) and -2.69 ± 0.16 (37 °C). In the same order, the values of UAUAAGCAAUAUUACGAAAG are -1.17 ± 0.13 and -2.44 ± 0.21.

In the case of UAUAAGCAAUAUUACGAAAU, the “self-splicing fitness (ln)” value is -3.45 ± 0.22 (30 °C) and -3.24 ± 0.33 (37 °C). As for UAUAAGCAAUAUUACGAACG, the “self-splicing fitness (ln)” value is -0.609 ± 0.12 (30 °C) and 0.622 ± 0.15 (37 °C).

Turning to UAUAAGCAAUAUUACGAACU, the “self-splicing fitness (ln)” value (30 °C) is -1.94 ± 0.28 and the “self-splicing fitness (ln)” value (37 °C) was 0.235 ± 0.24. In the same order, the values of UAUAAGCAAUAUUACGAAGG are -2.23 ± 0.21 and -1.19 ± 0.23.

As to UAUAAGCAAUAUUACGAAUC, the “self-splicing fitness (ln)” value (37 °C) is -1.77 ± 0.36. Regarding UAUAAGCAAUAUUACGACCA, the “self-splicing fitness (ln)” value was -0.816 ± 0.092 (30 °C) and 0.038 ± 0.12 (37 °C).

Turning to UAUAAGCAAUAUUACGAUCU, the “self-splicing fitness (ln)” value is -1.22 ± 0.11 (30 °C) and 0.0539 ± 0.12 (37 °C). In the same order, the values of UAUAAGCAAUAUUACGAUGC are -3.29 ± 0.36 and -2.63 ± 0.27. In the case of UAUAAGCAAUAUUACGAUUU, the “self-splicing fitness (ln)” value runs as follows: (30 °C) -1.43 ± 0.091; (37 °C) -0.65 ± 0.1. UAUAAGCAAUAUUACGCACC: the “self-splicing fitness (ln)” value (30 °C) was -1.82 ± 0.3 and the “self-splicing fitness (ln)” value (37 °C) is -1.42 ± 0.3. In the same order, the values of UAUAAGCAAUAUUACGCAGG are -2.31 ± 0.13 and -0.616 ± 0.11. The corresponding values for UAUAAGCAAUAUUACGCAUU are -2.15 ± 0.21 and -0.414 ± 0.14.

With UAUAAGCAAUAUUACGCCAU, the “self-splicing fitness (ln)” value reads like this: (30 °C) -1.19 ± 0.23; (37 °C) -2.11 ± 0.28. As for UAUAAGCAAUAUUACGCCGA, the “self-splicing fitness (ln)” value was -1.53 ± 0.14 (30 °C) and 0.235 ± 0.14 (37 °C). Regarding UAUAAGCAAUAUUACGCUUG, the “self-splicing fitness (ln)” value is, setting by setting: (30 °C) -1.75 ± 0.15; (37 °C) -0.76 ± 0.14. In the same order, the values of UAUAAGCAAUAUUACGGCCU are -0.92 ± 0.16 and -0.641 ± 0.23. UAUAAGCAAUAUUACGGGAG: the “self-splicing fitness (ln)” value was -2.07 ± 0.11 (30 °C) and -1.64 ± 0.12 (37 °C).

On to UAUAAGCAAUAUUACGGGCA, for which the “self-splicing fitness (ln)” value is -0.658 ± 0.11 (30 °C) and 0.213 ± 0.12 (37 °C).

On to UAUAAGCAAUAUUACGGGGU, for which the “self-splicing fitness (ln)” value (30 °C) is -2.93 ± 0.24 and the “self-splicing fitness (ln)” value (37 °C) is -2.66 ± 0.23.

Consider UAUAAGCAAUAUUACGGGUG, for which the “self-splicing fitness (ln)” value was -0.65 ± 0.074 (30 °C) and 0.0941 ± 0.12 (37 °C). Regarding UAUAAGCAAUAUUACGUAGC, the “self-splicing fitness (ln)” value (37 °C) was -2.05 ± 0.36.

The values are drawn from the supplement of paper PMC7877785.
